# From publication PMC3458539 (Nucleic Acids Research, 2012)
# Where a chain is given by its changes, count along the chain named.
# B1: Vibrio cholerae Hfq (wild-type) (natural protein)
# chain: MAKGQSLQDPFLNALRRERIPVSIYLVNGIKLQGQIESFDQFVILLKNTVNQMVYKHAISTVVPARPVSHHSGDRPASDRPAEKSEE
# B2: VcHfqK56A (proximal face RNA-binding mutant of Vibrio cholerae Hfq) (natural protein)
# chain: B1 chain with K56A
# B3: VcHfqY25D (distal face RNA-binding mutant of Vibrio cholerae Hfq) (natural protein)
# chain: B1 chain with Y25D
# What was measured:
# native MS = target: the molecule itself; assay: native MS
# SEC = target: the molecule itself; assay: SEC
Protein,stoichiometry N (native MS),stoichiometry N (SEC)
B1,6,–
B2,–,6
B3,–,6
